Each sequence was assayed on Saccharomyces cerevisiae (assay: transcriptional activation domain activity (GFP:mCherry ratio, weighted mean of sorted bins, harmonized to initial dataset scale) (arbitrary fluorescence ratio units); higher = stronger transcriptional activation). Conditions: beta-estradiol 1 µM; induction time 4 h.
Summary of the method: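 Values are activation activity, found as the read-weighted mean of bin median fluorescence, averaged across barcodes and then mapped linearly onto the initial dataset scale. Barcoded protein tiles fused to an estradiol-inducible synthetic transcription factor were integrated at the URA3 locus of GFP-reporter yeast diploids. Cells were induced for 4 hours at 30 °C with 1 uM beta-estradiol in SC, sorted into 8 bins by GFP:mCherry ratio, and barcode-sequenced, with tiles under 50 reads discarded.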

Sequence | transcriptional activation domain activity
RRLAGLLRHLQHRTREMGGHIVLIADPTQVCFVLLRPIIKKPALPAELVRKFW | 44800
MDNQAGEQKPKQRRVADRERKRAVRACDGCRRQKEKCDGGVPCRRCIRLRRQC | 53600
QRNDARLIPGIKYLQLVLGRVRCCREIIAILARNGHRLPKGMLPTLVRLWLLM | 35800
MCWACRILAAFPPPLPVFWFWFWFWFWFWFWFWLTAGWLAGFGFFVFAFCFLY | 32500
LYSRYCLLLICIFFVTLQFTTVRFTVRSFYFNTLSFFYLSFWCPQIYRNIMRN | 53600
GFMLIFWNLAGVPLSYCHCSIFVANHLDTITSWGGDFRLPLLVLLFTSYLFMY | 42000
AFAGVLLCYFFILFYFIFFFLFFSWLLLLVEYIVWDNLINLLFLVSCFSFFFA | 55300
MVWGCAFFISSQFLFPWLLWVFPLSLLSLGLSHTLELDSVFSLLLIFFTIPLF | 34500
SKDLTRLTLISIMLEKCEGDYSAACVEQYLTVLLKFAVLAVVSDQTLHLSILA | 52000
GKSKEERERDEEVIRKWSGKPTKVMLQVFDDCSLSFTRPAKLMYRSIAHFSLW | 65100
MTESHRPNQSLGLDDAAGGRKPAKRKAHRKSRTGCRQCRASRVKCDENKPSCS | 41000
KSYVAILGYIMYPPTTRLVIHIRVWADALRALSSQAMLKTYLLTRGYQFRSIV | 58900
QFALLLGSFLCVAISCFGHLALLFLWLIAPFYFLVFLFWQSFNLFLFVSVCCG | 44700
DQGLTDCGDVRHTKVVSLSYHFSPDYNDPTIIPVVTRWCTEIGKLTLTGITFV | 62400
KNASFNDADLLSSSYWIKAYNDHLFSVSESDETSPMNSELNDTKLIVPDFKST | 69100
RIRDFMQFTLAATKTHYKLLPDILFKADPELCRRVSDANPSCALAALLTLYAH | 77500
FVEDPEMRRSIVRKFDWRVLTWMAGLSSYLRLWVLYRSSLTRLLMCLVLCINA | 69800
AAGKAGKGGKGAGKAGKGAGKGKGGKRGGKGGKGAKAAGKGAAKAASQAAAAS | 37100
EAVPHQDNDSFRSEKKEGEAEVQIVEDVGSSIYGCDRTQRTLKNRHIQLIGVG | 50200
GVDDADHEEEEEEEEEEEQEGARYGALMGGLGVAQGAMRILAPAVAGGVYAVS | 67300
PPSLVDLVANTIAACHSETTPETVSLQIVKALLSLVLSSTILVHHSSLLKAVR | 50700

Sequence | transcriptional activation domain activity
HKRRRDSVMMDYDLSNFFSSRQLDISKVLNGTEQNNSHVNDDVLTLSFPGETD | 35100
GQGPLRSSYSMAYDSPVDRAMNTPLQQQEGLKAELPHDFLFQHGTDDTMYNLT | 36100
ELLNAIVLVHMKLETGDLPPIVSRHIGRFAEQVLSKTPIHLIVTTSFRTLHKI | 73400
MWTVLVGFIRGFLLLLWHLAYPFHFFLYFQLILSSHRLEWLISLFVDAMTGIA | 33400
EKKVKTPKSPKKEKKKEEPAAAPAAAAEEPAKEEAAAPAEAAVAPTEEPAKVE | 42200
CDTGILLCLVCYLSSKVLLYFFLVEKVHVIRGNNDSRWKDKLFVFNCFGMMLP | 38100
MLMLLGKHVLLLIKMISLMDPFQVNILLHRNNPFPAVSFFFYYSFCLFHILHF | 55200
SGGAPRGRGRGRREEKGRGRGRERGGRGRGGDRGRGRGRGRGVGGGSMGGGGG | 15900
FLRGLVVLLWSLDSLHLAFIVHGLYYYLIQNYGNYFSLFKPVWSFVGQILVSS | 57300
METTVSGQSSQPPAANDDQEPTKKRKRDKYVGKACGPCKRRKIRCGGGVPCES | 36300
EEGGKEKEMREVERLSADERKLWGEALRLGRTGYSESAMIWVHVLALRVFVET | 37700
MSPSSAVFFFFFFCIALFDSVWLVSFFMVLFFLFDSSLYSLLFFSCLFFFIHS | 50000
LEEIHILERLYYKSKNQHHASLFWRKLTEIRRVTTRLLKFNVTETVASIPLAF | 59200
SGTEDEDAAEDKSAAEDESGTEDESGTKDESGTEDEKLVRDIEEVVIVVEVVM | 32900
LCIGIVLIAAFIAYEYLMVSGRVLARHLPHQKSMLPWELITNKDLGLLFYVNF | 44400
KDEVMKIMPVQKQTRAGQRTRFKAFVVIGDSDGHVGLGVKCAKEVATAIRGAI | 61200
LVHGRWSYQRVADMHANFFYKNVIWTFGLFWYLPFNSFDATYLYHYTFILLCN | 61000
MLFVCFFWLWGWWLVVVVFVFLFFSFFLLLSSEFTDPFAFFCLFFFVLLHFSF | 44000
FHPIPFLFSSSPLFLIPIFSFHIFHFLLLPFFPSLLLSSFSIPFIPLLSIHSS | 57600
DEEEAPEEGARGRRRKGRGKGKGKQGGGGEEEGGDGEEVEGEGEAEGEQENAG | 24000
LFFYFFIFLFFYFFILLFYYFIILLFYYLFFFFATVLILILLFFFFFFTYQRT | 47600

Sequence | transcriptional activation domain activity
LNWYWLATTMYFLYGESVIYYFKHIVLVDKVLLPLATHHRFISFILYVFGFVF | 71900
MFCLRSWLPLLFIPTSASPVFIFLFFVCTYFLNRPCVYCSFLLLILFLTSCNW | 30800
MFSHFNSSDLTSTFFFFMPVLGFILCPFFLLESMVCALVGWPCFLLSYCLPCL | 68900
ELGAIEESKLCIVLLGTFRLLSFDCRTFAKYVRPLSLERLFNHTSRIVRLLAI | 44000
CEPLRKATRGLVTTVVNGNDVVPSLSIGVVRDFHSVALSFKEDTGGVLGEVRK | 39100
MFIYVFRPCNCIHLFIICQFSLFLITLLLYLFDLFFQLPFLLCINLTFCVAMC | 64900
VLLLKTLLSPVVVPDLDDHSLVLKQFKTFHWQRKNLTSVINILAQALYSLFAA | 27800
CKSFITVLMDLPHFTTSCVWVFFFSSFCFLWENASLLYRRLILSFFSFSFLFP | 66000
FSLFLLSLLPTADAFFPLLLFVSCWLTLYTFVLCLLSYFFYSLTLTLYVCLVS | 55800
MREDITQIDLITFYLCIFLSITVFVELIILCWIRILSIFNVCLFALLLCQLVY | 33700
TGGISELQNALDDTRASFAYVRLQYANDKESKREKFILVIWIGKSVKVMRKAK | 40200
MYMIFINPLLLMIILYIKLLPLMFPLLINLLILLIFLLYIHLLSIVFLQKFYI | 60100
HQVYTDWLYLWCLTYFARAHDQVLIILKKSLKHIPIVGWGMQFFRFLFLARSW | 31700
HLNGESSPQLVPHSHHQPHSDTDEEDWESIGAASLRNNSLAPNIDSVASSTNG | 45100
GNDEAGAEDTDEDEIEGEGEEGQAPADGNEEEGAGEGESSRAMKKIGKKKAEK | 16600
KEREQREQREQRRKEEREREKERERERELRERERERERERQQAREEAERAAMG | 15400
MNQTSCFFPPFFLFSFFFFLFFFPFPHSSSLPSFFFSFPSISPLFTSFSVSSL | 35200
QQPITYRKTIYDFFSWFLSLGFLNMMVPCFDLLYISRILVVWREVYYCHLIIA | 58100
DGNAGQTAGNAGNGRQNGNGRQGGNGGAGQQGKPRPNGQKGQQGQRGQGAGAG | 20500
GAVINLSLSLGRRTQVEEAIKLVRYKAHYVSGSIDHGLHRLLVWAYTLLTVRI | 57100
VREEPTAFFFVVFGLVYETLVTSVPDSDAAAHRTSIVALKALKCLVQEKYCGK | 46200

Sequence | transcriptional activation domain activity
EETPVTEAPKAVEESKPVEEVKSEQKEGAAETAKDEPAQETATERSTESTPAS | 34900
ITNGLYTGLGIKVPITKLQKYTPLEVALHSWRLVYMYFWSSFCLLIVCLIIFL | 65800
FTRVDICFRNCYAGGTVVLVYSALAFFLLLMIAMYGNGYHGPFAWMTFTLSTV | 53000
VGSLVYVTRYSEHLLVSGEFGPELLGAGAYYGGMLWFFFSSQNYRLLFHWQFW | 49800
RQYRKRKAPAPAEGEENGEVAPAAPKPKRQRKKKPAPEEGAENTDGTAAAPKP | 47000
ANDDDGEEQEEQEEKPKKKRKRTASTPAETAGAGPSKPKPRPRPKKTSAVVPP | 28200
MGGCICLRWSCVNVFFSFVYSFGLACCFTSWEYGGVYLGEGGCFLFYLSFFFL | 50500
MFRLLEESFRYEPFVTFGLAVFACYFALIALNVVYYYYLFHFLWFCSYAFLAL | 51600
MGFCFYVAGCMSISLILLFSFCLLLPPIFTGYQILWLLWIILPILSMSMLFTP | 43400
MWGWNGKEIHFSFTEVFLKFLIWLVHSFLRSFLGFSNGFFLTFPLVGFFFSFL | 54800
APSRRTGRTSTAGSASESRPTSSCTSPRRPPTPPARPPASPRTRRTSPRRPSA | 31000
MIYGWSIFFFFFFFALHVYIRVFLWGRFCLRVVWVRLFLFHFSGWGCNFGGFV | 49700
MLHSLYVVAISKSGILSSFVNPTTTTVHYTPFEISMIGYFNLVLIWLKLLILW | 61300
VQLVLVLILVNILINILTFLILSHQGVMHTSCLYLFAYICARLCLGASLSGVW | 12800
EKAGEEEKAGEEEKAAEEEKSAEEEKAAKEEEMKAMEKSKAEKEASSEEPKAE | 35700
RTTSLGVWFLLIQFLWYGAFGVLYVWFFCQTFEYFNTLLVFDYILRFILCLMF | 51200
WRVLSVFAVFNLGPYVFSLILYSSNAFLYTQWLSFTAVCLISLANVILFRFLL | 43700
VLYGRLRVKAQLLECALWNISAWLSLPDVERKSYTMLFTTLGGLYDMTCRIYL | 53000
TKPAEASAADKKPEEAKPAEAPAPAAAPAAAEAPKAEEKPAPAPAPTEAPKAE | 21400
DSGKQGFLFLVCLVFFVFFWGFACDLWLGLLLLFFFFPFLSFPLFSLPHYHGH | 43900

Source: the supplement of paper PMC12636428
